Reference: patent publication US20230381350A1 (PRECIRIX N V, published 2023)
Changes are numbered by the printed parent chain. In names and notes the source's numbering stands.

Key:
[1] = target: T1, human FAP expressed on cells (human, UniProt Q12884 1-760); assay: saturation binding of 131I-SGMIB-labelled VHH on human FAP-expressing GM05389 cells; GM05389 cells
T1 construct: also called human FAP cell surface protein; human FAP receptor
T1 sequence: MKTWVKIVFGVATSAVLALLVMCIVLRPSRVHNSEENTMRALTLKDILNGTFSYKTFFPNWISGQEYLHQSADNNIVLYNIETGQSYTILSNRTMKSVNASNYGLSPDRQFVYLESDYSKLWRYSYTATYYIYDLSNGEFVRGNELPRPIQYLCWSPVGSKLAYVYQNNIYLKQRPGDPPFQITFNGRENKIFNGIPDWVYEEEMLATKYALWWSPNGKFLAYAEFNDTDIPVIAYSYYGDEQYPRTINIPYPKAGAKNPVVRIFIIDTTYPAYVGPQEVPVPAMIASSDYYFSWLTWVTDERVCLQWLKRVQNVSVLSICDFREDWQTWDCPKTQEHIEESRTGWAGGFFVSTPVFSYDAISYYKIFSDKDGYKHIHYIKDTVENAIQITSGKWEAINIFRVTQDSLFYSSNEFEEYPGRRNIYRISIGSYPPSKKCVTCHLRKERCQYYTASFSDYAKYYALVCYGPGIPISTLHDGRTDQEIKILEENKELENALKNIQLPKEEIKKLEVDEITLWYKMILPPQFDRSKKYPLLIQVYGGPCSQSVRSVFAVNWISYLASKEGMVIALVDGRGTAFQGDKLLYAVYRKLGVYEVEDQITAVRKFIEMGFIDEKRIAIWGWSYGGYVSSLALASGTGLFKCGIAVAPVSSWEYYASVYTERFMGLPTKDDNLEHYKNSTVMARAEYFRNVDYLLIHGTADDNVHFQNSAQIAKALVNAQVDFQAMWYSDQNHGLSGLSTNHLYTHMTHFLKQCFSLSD
Procedure: (§1) In a first part, the in vitro behaviour was assessed by means of investigating their cellular binding and retention overtime. The binding potential of the resulting radioconjugates was assessed to confirm that this was not affected by the introduction of ¹³¹I-SGMIB into the amino acid sequence of the VHH. To this, human FAP-expressing GM05389 (His₆-tagged and untagged VHH B1) and human FAP-transfected HEK-293 cells (His₆-tagged and untagged VHH B1; His₆-tagged VHH B2) were incubated with serial dilutions with concentrations ranging from 0 to 33 nM of the different ¹³¹I-labelled VHHs. A 100-fold excess of the corresponding unlabeled VHH was added in parallel to saturate the human FAP receptors expressed on cancer cells, to assess non-specific binding.

[2] = target: T1, human FAP expressed on cells; assay: saturation binding of 131I-SGMIB-labelled VHH on human FAP-transfected HEK-293 cells; HEK-293 cells
Procedure: as §1

[3] = target: T2, human DPP IV recombinant protein (human, UniProt P27487 29-766); assay: ELISA, coated human DPP IV, HA-His6-tagged VHH extract, anti-HA detection
T2 construct: extracellular domain; Bought protein; also called Dipeptidyl amino-peptidase IV
Procedure: (§2) The day before measurement, 0.1 μg recombinant protein at a concentration of 1 μg/mL in 100 mM NaHCO₃, pH 8.2 was coated in a 96-well ELISA plate (Nunc MaxiSorp). Per VHH clone also a blank coated well was foreseen (only buffer). The wells were overcoated with protein-free T20 (PBS) blocking buffer (Pierce). After washing with PBS, pH7.4, 0.05% Tween, VHH-containing bacterial freeze-thaw extract was added to every well. Binding of HA-His₆-tagged VHHs was detected by using mouse anti-HA.11 epitope tag (clone 16B12, Biolegend) as the primary Ab and goat anti-mouse IgG (whole molecule) alkaline phosphatase conjugate (Sigma-Aldrich) as the secondary Ab, with thorough washing with PBS, pH 7.4, 0.05% Tween in between. Signals were developed using phosphatase substrate (Sigma-Aldrich) in AP blot buffer (100 mM NaCl, 50 mM MgCl₂, 100 mM Tris, pH 9.5). The absorbance was determined at 405 nm using an absorbance microplate reader (Molecular Devices). Per clone the ratio was determined between the absorbance in the antigen-coated well versus the well without antigen.

[4] = target: T3, human FAP recombinant protein (human, UniProt Q12884 26-760); assay: ELISA, coated human FAP recombinant protein, HA-His6-tagged VHH extract, anti-HA detection
T3 construct: The protein was biotinylated with sulfo-NHS-SS-biotin for bio-layer interferometry; also called extracellular domain of human FAP with N-terminal His6-tag
T3 sequence: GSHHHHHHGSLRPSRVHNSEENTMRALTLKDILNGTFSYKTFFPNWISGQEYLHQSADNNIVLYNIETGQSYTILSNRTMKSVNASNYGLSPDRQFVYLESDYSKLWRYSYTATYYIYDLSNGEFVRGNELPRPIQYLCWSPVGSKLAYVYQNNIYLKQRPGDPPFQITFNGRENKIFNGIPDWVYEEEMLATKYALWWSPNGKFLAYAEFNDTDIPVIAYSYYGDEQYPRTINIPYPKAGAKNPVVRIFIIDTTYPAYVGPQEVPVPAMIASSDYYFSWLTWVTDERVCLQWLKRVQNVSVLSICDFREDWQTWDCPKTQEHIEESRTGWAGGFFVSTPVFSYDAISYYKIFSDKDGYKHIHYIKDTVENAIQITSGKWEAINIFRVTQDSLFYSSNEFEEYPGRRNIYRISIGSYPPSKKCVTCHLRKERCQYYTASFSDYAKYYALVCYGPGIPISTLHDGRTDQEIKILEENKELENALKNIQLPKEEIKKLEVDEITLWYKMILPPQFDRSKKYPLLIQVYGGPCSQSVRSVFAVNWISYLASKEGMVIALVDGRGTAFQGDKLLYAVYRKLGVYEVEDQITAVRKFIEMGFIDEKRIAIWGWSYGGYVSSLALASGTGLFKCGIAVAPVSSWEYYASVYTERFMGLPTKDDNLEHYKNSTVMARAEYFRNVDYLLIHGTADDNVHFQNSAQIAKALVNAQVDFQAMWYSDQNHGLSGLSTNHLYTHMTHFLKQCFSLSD
Procedure: as §2

[5] = target: T2, human DPP IV recombinant protein; assay: ELISA on coated recombinant protein, VHH-containing bacterial extract, anti-HA detection, signal-to-background ratio
Procedure: as §2

[6] = target: T1, human FAP expressed on cells; assay: saturation binding of 99mTc-labelled VHH on human FAP-expressing HEK-293 cells (mean ± SD, n = 3)
Procedure: (§3) Next, we describe the in vitro and in vivo human and murine FAP binding potential of different VHHs after radiolabelling with the diagnostic radioisotope ^99mTc. […] His₆-tagged human/murine FAP-targeting VHHs were radiolabelled with the diagnostic radioisotope ^99mTc, according to the radiochemical procedure described in Example 3.
(§4) Next, the different cell lines were incubated with serial dilutions with concentrations ranging from 0 to 300 nM of the different ^99mTc-labelled His₆-tagged VHHs. A 100-fold excess of the corresponding unlabeled VHH was added in parallel to saturate the human or murine FAP proteins on the cancer cell surface, to assess non-specific binding. The resulting EC50 values for each of the VHHs are depicted in Table 8. […] We confirmed that ^99mTc-labeled VHH B4 only binds murine FAP cell surface protein, while VHH B3 only binds human FAP cell surface molecules in vitro.

[7] = target: T4, murine FAP expressed on cells (murine, UniProt P97321 1-761); assay: saturation binding of 99mTc-labelled VHH on murine FAP-expressing HEK-293 cells
T4 construct: also called murine FAP cell surface protein
T4 sequence: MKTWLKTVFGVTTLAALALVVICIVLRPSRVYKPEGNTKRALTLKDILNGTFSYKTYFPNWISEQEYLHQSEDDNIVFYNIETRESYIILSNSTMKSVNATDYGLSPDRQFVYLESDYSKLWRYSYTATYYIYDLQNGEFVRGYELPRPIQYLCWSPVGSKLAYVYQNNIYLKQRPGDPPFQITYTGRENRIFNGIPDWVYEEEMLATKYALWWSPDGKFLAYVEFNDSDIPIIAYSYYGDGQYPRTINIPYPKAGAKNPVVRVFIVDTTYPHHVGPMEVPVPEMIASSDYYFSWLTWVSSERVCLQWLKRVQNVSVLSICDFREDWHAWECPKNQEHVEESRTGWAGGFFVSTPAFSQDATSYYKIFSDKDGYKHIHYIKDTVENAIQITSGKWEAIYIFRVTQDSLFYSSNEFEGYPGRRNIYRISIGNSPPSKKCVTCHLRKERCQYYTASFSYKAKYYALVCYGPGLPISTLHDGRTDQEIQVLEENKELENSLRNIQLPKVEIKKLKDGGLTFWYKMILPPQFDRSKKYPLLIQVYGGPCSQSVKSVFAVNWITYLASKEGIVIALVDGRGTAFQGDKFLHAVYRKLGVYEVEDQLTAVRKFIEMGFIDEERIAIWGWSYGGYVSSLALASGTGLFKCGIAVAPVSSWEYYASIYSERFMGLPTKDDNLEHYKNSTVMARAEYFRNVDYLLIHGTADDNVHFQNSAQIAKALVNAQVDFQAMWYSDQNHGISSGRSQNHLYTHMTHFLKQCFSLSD
Procedure: as §4

[8] = target: T1, human FAP expressed on cells; assay: saturation binding of 99mTc-labelled VHH on human FAP-expressing GM05389 cells (mean ± SD, n = 3)
Procedure: as §3, §4

[9] = target: T4, murine FAP expressed on cells; assay: saturation binding of 99mTc-labelled VHH on murine FAP-expressing HEK-293 cells (mean ± SD, n = 3)
Procedure: as §3, §4

[10] = target: T1, human FAP expressed on cells; assay: saturation binding of 99mTc-labelled VHH on human FAP-expressing GM05389 cells
Procedure: as §4

T2 sequence (P27487 29-766): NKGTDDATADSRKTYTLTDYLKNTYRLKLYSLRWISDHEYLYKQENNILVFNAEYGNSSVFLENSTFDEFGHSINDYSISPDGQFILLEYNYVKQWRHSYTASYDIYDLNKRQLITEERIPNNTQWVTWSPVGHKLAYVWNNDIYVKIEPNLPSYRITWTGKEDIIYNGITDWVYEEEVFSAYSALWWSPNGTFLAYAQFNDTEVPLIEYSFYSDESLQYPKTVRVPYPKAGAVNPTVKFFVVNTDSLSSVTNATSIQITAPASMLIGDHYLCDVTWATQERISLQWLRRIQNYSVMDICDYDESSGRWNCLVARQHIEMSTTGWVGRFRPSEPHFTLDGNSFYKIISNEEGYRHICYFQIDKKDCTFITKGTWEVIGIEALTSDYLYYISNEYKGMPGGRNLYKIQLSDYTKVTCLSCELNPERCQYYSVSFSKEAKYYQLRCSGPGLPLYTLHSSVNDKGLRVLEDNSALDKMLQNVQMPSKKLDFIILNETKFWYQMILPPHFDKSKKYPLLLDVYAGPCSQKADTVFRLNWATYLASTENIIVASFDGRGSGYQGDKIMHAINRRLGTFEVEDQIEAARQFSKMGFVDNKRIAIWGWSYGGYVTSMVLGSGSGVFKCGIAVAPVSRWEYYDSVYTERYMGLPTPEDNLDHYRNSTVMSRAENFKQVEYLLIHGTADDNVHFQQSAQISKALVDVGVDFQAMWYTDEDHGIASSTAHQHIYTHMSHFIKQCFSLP

B1: 131I-labeled His6-tagged VHH B1 (VHH)
VHH: DVQLVESGGGLVQPGGSLRLSCVASGRLSSSNSMAWYRQVPGKRRELVAGITGGGETNYADFVGGRFTISRDNAKNGLYLQLNGLKPEDTAAYYCNFWPPLINYWGQGTQVTVSS
modifications: [131I]SGMIB conjugated to lysine side-chain amines
notes: also called 131I-B1; His6-tagged B1
Q: B1 was tested. Which EC50 [1] did it give?
A: The EC50 was 0.6 nM.

Q: What about the EC50 [2] of the same binder?
A: The EC50 was 1.4 nM.

B2: 131I-labeled untagged VHH B1 (VHH)
VHH: B1 VHH
modifications: [131I]SGMIB conjugated to lysine side-chain amines
notes: also called untagged B1; [131I]SGMIB-VHH
Q: With B2 as the binder, how does the EC50 [1] read?
A: The EC50 was 2.7 nM.

Q: And the EC50 [2]?
A: The EC50 was 2.8 nM.

B3: HA-His6-tagged VHH B2 (VHH)
VHH: QVQLQESGGGLVQAGGSLRLSCAVSGSISSANSMGWYRQAPGKQRDVVAGLTTGGRSHYADSVKGRFTISRDNAKNTVYLQMNSLKAEDTAVYYCNLWPPVQGYWGQGTQVTVSS
notes: also called B2 with HA-His6-tag
Q: Which results are given for B3?
A: signal-to-background ratio [3]: ~1; signal-to-background ratio [4]: > 25; binding result [5]: no binding

B4: 131I-labeled His6-tagged VHH B2 (VHH)
VHH: B3 VHH with Q1D, Q5V
modifications: [131I]SGMIB conjugated to lysine side-chain amines
notes: also called 131I-B2; His6-tagged B2
Q: With B4 as the binder, how does the EC50 [2] read?
A: The EC50 was 3.8 nM.

B5: 99mTc-labeled His6-tagged VHH B3 (VHH)
VHH: DVQLVESGGGLVQAGGSLRLSCAVSGRLFSTNAMGWYRQAPGKQRELVAGITGGDRSNYADSVKGRFTISRDNGKNTLYLQMNSLKPEDTAVYYCNFYPPIVGDYWGQGTQVTVSS
modifications: [99mTc(H2O)3(CO)3] complexed at the His6-tag
notes: also called 99mTc-B3
Q: Which EC50 [6] does the source give for B5 here?
A: Its EC50 is 2.4 nM.

Q: Does B5 bind [7]?
A: Result: no binding (tested: 0 to 300 nM)

Q: And the EC50 [8]?
A: Its EC50 is 2.7 nM.

B6: 99mTc-labeled His6-tagged VHH B4 (VHH)
VHH: DVQLVESGGGLVQVGGSLRLSCVASGFTFSSYYMSWVRQAPGKGLEWVASIYADGDMTYYADSVRGRFTISRDNAKNTLYLQMNSLKSEDTAVYYCAKDPLPPYHVNQGTQVTVSS
modifications: [99mTc(H2O)3(CO)3] complexed at the His6-tag
notes: also called 99mTc-B4
Q: What does the source list for B6?
A: EC50 [9]: 7.6 nM; binding result [10]: no binding (tested: 0 to 300 nM)

B7: 99mTc-labeled non-targeting control VHH R3B23 (VHH)
VHH: QVQLQESGGGSVQAGGSLRLSCAASGDTGYMGWFRQAPGKEREGVAVINSDSGVGSTYYADSVKGRFTISRDNAKNTVYLQMNSLKPEDTAIYYCAAGHFSDYVSPWTWREIYRYNVWGQGTQVTVSS
modifications: 99mTc label (labelling is described at the His6-tag)
notes: also called 99mTc-R3B23
Q: Does B7 bind [7]?
A: Result: no binding (tested: 0 to 300 nM)

Q: Does B7 bind [10]?
A: Result: no binding (tested: 0 to 300 nM)
